Consider 1 substance from publication PMC4240654.

For assay [1], the target named is BDD rFVIII (recombinant B-domain-deleted factor VIII, ReFacto / Xyntha) (UniProt P00451).
Assay [2] addresses SC rFVIIIFc R1645A/R1648A (human).
For assay [3], the target named is SC rFVIIIFc (single chain recombinant factor VIII Fc fusion protein) (human).
For assay [4], the target named is rFVIIIFc (recombinant factor VIII Fc fusion protein) (human) (UniProt P00451).

In the case of FIXa (activated factor IX) (enzyme), the Apparent K D (FIXa-FVIIIa affinity), FXa generation assay on synthetic phospholipids, thrombin-activated BDD rFVIII (ReFacto) in assay [1] amounted to 4.5 nM. Further, the Apparent K D (FIXa-FVIIIa affinity), FXa generation assay on synthetic phospholipids, thrombin-activated SC rFVIIIFc R1645A/R1648A in assay [2] was 3.8 nM. Besides, the Apparent K D (FIXa-FVIIIa affinity), FXa generation assay on synthetic phospholipids, thrombin-activated SC rFVIIIFc in assay [3] worked out at 4.1 nM. The Apparent K D (FIXa-FVIIIa affinity), FXa generation assay on synthetic phospholipids, thrombin-activated rFVIIIFc in assay [4] worked out at 5.5 nM.
